Assay results reported in patent US20260242735A1 (UNIVERSIT T BASEL, published 2026).

B1: Refmab #6 (antibody, V domains shown)
VH: QVQLQQPGAEVVKPGASVKMSCKASGYTFTSYYIHWIKQTPGQGLEWVGVIYPGNDDISYNQKFQGKATLTADKSSTTAYMQLSSLTSEDSAVYYCAREVRLRYFDVWGQGTTVTVSS
VL: EIVLTQSPGSLAVSPGERVTMSCKSSQSVFFSSSQKNYLAWYQQIPGQSPRLLIYWASTRESGVPDRFTGSGSGTDFTLTISSVQPEDLAIYYCHQYLSSRTFGQGTKLEIK
notes: Full-length format is human IgG1 Fc silent (PG-LALA); also made as Fab; The alanine scan used IgG or Fab
B2: Refmab #6 (antibody, V domains shown)
VH: B1 VH
VL: B1 VL
notes: The alanine scan used IgG or Fab
B3: Refmab #4 (antibody, human IgG1, V domains shown)
VH: QVQLVQSGAEVKKPGESVKVSCKASGYTFTNYGMNWVKQAPGQGLEWMGWINTYTGEPTYADKFQGRVTMTTDTSTSTAYMEIRNLGGDDTAVYYCARWSWSDGYYVYFDYWGQGTSVTVSS
VL: DIVMTQSPDSLTVSLGERTTINCKSSQSVLDSSTNKNSLAWYQQKPGQPPKLLLSWASTRESGIPDRFSGSGSGTDFTLTIDSPQPEDSATYYCQQSAHFPITFGQGTRLEIK
B4: Refmab #5 (antibody, V domains shown)
VH: QVQLVQSGAEVKKPGASVKVSCKASGYTFTNYDINWVRQAPGQGLEWIGWIYPGDGSTKYNEKFKAKATLTADTSTSTAYMELRSLRSDDTAVYYCASGYEDAMDYWGQGTTVTVSS
VL: DIQMTQSPSSLSASVGDRVTINCKASQDINSYLSWFQQKPGKAPKTLIYRANRLVDGVPSRFSGSGSGQDYTLTISSLQPEDFATYYCLQYDEFPLTFGGGTKVEIK
notes: as for B1
B5: Refmab #5 (antibody, V domains shown)
VH: B4 VH
VL: B4 VL
notes: as for B2
B6: Refmab #5 (antibody, human IgG1, V domains shown)
VH: B4 VH
VL: B4 VL

How the values were obtained:
human CD33 Y116A = human CD33 Y116A (human, UniProt P20138 18-364); test: alanine scan, flow cytometry, HEK293-T;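 also: antibody binding to each alanine-substituted CD33 mutant expressed transiently in HEK293-T, read as fluorescence minus background, mean of duplicates, relative to wild-type CD33 set as 100%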
Sequence of human CD33 Y116A (P20138 18-364 Y116A limits assumed): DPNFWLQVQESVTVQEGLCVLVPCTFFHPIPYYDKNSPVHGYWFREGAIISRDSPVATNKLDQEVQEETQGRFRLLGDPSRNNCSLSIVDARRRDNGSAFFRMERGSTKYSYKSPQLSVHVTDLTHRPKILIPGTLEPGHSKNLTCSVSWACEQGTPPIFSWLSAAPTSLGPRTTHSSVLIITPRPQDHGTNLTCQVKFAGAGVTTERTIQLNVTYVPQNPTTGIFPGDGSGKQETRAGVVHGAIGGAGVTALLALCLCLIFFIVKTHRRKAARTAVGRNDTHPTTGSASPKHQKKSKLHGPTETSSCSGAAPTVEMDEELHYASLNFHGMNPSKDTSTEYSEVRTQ

human CD33 D112A = human CD33 D112A (human, UniProt P20138 18-364); test: alanine scan, flow cytometry, HEK293-T;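 also: antibody binding to each alanine-substituted CD33 mutant expressed transiently in HEK293-T, read as fluorescence minus background, mean of duplicates, relative to wild-type CD33 set as 100%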
Sequence of human CD33 D112A (P20138 18-364 D112A limits assumed): as the sequence (P20138 18-364 Y116A limits assumed) above, with D95A, A99Y counted along it

human CD33 G58A = human CD33 G58A (human, UniProt P20138 18-364); test: alanine scan, flow cytometry, HEK293-T;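 also: antibody binding to each alanine-substituted CD33 mutant expressed transiently in HEK293-T, read as fluorescence minus background, mean of duplicates, relative to wild-type CD33 set as 100%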
Sequence of human CD33 G58A (P20138 18-364 G58A limits assumed): as the sequence (P20138 18-364 Y116A limits assumed) above, with G41A, A99Y counted along it

human CD33 W60A = human CD33 W60A (human, UniProt P20138 18-364); test: alanine scan, flow cytometry, HEK293-T;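 also: antibody binding to each alanine-substituted CD33 mutant expressed transiently in HEK293-T, read as fluorescence minus background, mean of duplicates, relative to wild-type CD33 set as 100%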
Sequence of human CD33 W60A (P20138 18-364 W60A limits assumed): as the sequence (P20138 18-364 Y116A limits assumed) above, with W43A, A99Y counted along it

human CD33 E81A = human CD33 E81A (human, UniProt P20138 18-364); test: alanine scan, flow cytometry, HEK293-T
Sequence of human CD33 E81A (P20138 18-364 E81A limits assumed): as the sequence (P20138 18-364 Y116A limits assumed) above, with E64A, A99Y counted along it

human CD33 R111A = human CD33 R111A (human, UniProt P20138 18-364); test: alanine scan, flow cytometry, HEK293-T
Sequence of human CD33 R111A (P20138 18-364 R111A limits assumed): as the sequence (P20138 18-364 Y116A limits assumed) above, with R94A, A99Y counted along it

human CD33 F117A = human CD33 F117A (human, UniProt P20138 18-364); test: alanine scan, flow cytometry, HEK293-T
Sequence of human CD33 F117A (P20138 18-364 F117A limits assumed): as the sequence (P20138 18-364 Y116A limits assumed) above, with A99Y, F100A counted along it

human CD33 A74S = human CD33 A74S (human, UniProt P20138 18-364); test: alanine scan, flow cytometry, HEK293-T
Sequence of human CD33 A74S (P20138 18-364 A74S limits assumed): as the sequence (P20138 18-364 Y116A limits assumed) above, with A57S, A99Y counted along it

human CD33 T173A = molecular target: T1, human CD33 T173A (human, UniProt P20138 18-364); test: alanine scan, flow cytometry, HEK293-T
T1 construct: alanine scan clone, transfected HEK293-T
T1 sequence (P20138 18-364 T173A limits assumed): as the sequence (P20138 18-364 Y116A limits assumed) above, with A99Y, T156A counted along it

human CD33 E121A = molecular target: T2, human CD33 E121A (human, UniProt P20138 18-364); test: alanine scan, flow cytometry, HEK293-T
T2 construct: alanine scan clone, transfected HEK293-T
T2 sequence (P20138 18-364 E121A limits assumed): as the sequence (P20138 18-364 Y116A limits assumed) above, with A99Y, E104A counted along it

human CD33 L161A = molecular target: T3, human CD33 L161A (human, UniProt P20138 18-364); test: alanine scan, flow cytometry, HEK293-T
T3 construct: alanine scan clone, transfected HEK293-T
T3 sequence (P20138 18-364 L161A limits assumed): as the sequence (P20138 18-364 Y116A limits assumed) above, with A99Y, L144A counted along it

human CD33 G151A = molecular target: T4, human CD33 G151A (human, UniProt P20138 18-364); test: alanine scan, flow cytometry, HEK293-T
T4 construct: alanine scan clone, transfected HEK293-T
T4 sequence (P20138 18-364 G151A limits assumed): as the sequence (P20138 18-364 Y116A limits assumed) above, with A99Y, G134A counted along it

human CD33 L153A = molecular target: T5, human CD33 L153A (human, UniProt P20138 18-364); test: alanine scan, flow cytometry, HEK293-T
T5 construct: alanine scan clone, transfected HEK293-T
T5 sequence (P20138 18-364 L153A limits assumed): as the sequence (P20138 18-364 Y116A limits assumed) above, with A99Y, L136A counted along it

human CD33 T185A = molecular target: T6, human CD33 T185A (human, UniProt P20138 18-364); test: alanine scan, flow cytometry, HEK293-T
T6 construct: alanine scan clone, transfected HEK293-T
T6 sequence (P20138 18-364 T185A limits assumed): as the sequence (P20138 18-364 Y116A limits assumed) above, with A99Y, T168A counted along it

human CD33 L187A = molecular target: T7, human CD33 L187A (human, UniProt P20138 18-364); test: alanine scan, flow cytometry, HEK293-T
T7 construct: alanine scan clone, transfected HEK293-T
T7 sequence (P20138 18-364 L187A limits assumed): as the sequence (P20138 18-364 Y116A limits assumed) above, with A99Y, L170A counted along it

human CD33 S135A = molecular target: T8, human CD33 S135A (human, UniProt P20138 18-364); test: alanine scan, flow cytometry, HEK293-T
T8 construct: alanine scan clone, transfected HEK293-T
T8 sequence (P20138 18-364 S135A limits assumed): as the sequence (P20138 18-364 Y116A limits assumed) above, with A99Y, S118A counted along it

human CD33 I176A = molecular target: T9, human CD33 I176A (human, UniProt P20138 18-364); test: alanine scan, flow cytometry, HEK293-T
T9 construct: alanine scan clone, transfected HEK293-T
T9 sequence (P20138 18-364 I176A limits assumed): as the sequence (P20138 18-364 Y116A limits assumed) above, with A99Y, I159A counted along it

human CD33 T162A = molecular target: T10, human CD33 T162A (human, UniProt P20138 18-364); test: alanine scan, flow cytometry, HEK293-T
T10 construct: alanine scan clone, transfected HEK293-T
T10 sequence (P20138 18-364 T162A limits assumed): as the sequence (P20138 18-364 Y116A limits assumed) above, with A99Y, T145A counted along it

human CD33 H137A = molecular target: T11, human CD33 H137A (human, UniProt P20138 18-364); test: alanine scan, flow cytometry, HEK293-T
T11 construct: alanine scan clone, transfected HEK293-T
T11 sequence (P20138 18-364 H137A limits assumed): as the sequence (P20138 18-364 Y116A limits assumed) above, with A99Y, H120A counted along it

human CD33 N160A = molecular target: T12, human CD33 N160A (human, UniProt P20138 18-364); test: alanine scan, flow cytometry, HEK293-T
T12 construct: alanine scan clone, transfected HEK293-T
T12 sequence (P20138 18-364 N160A limits assumed): as the sequence (P20138 18-364 Y116A limits assumed) above, with A99Y, N143A counted along it

human CD33 P150A = molecular target: T13, human CD33 P150A (human, UniProt P20138 18-364); test: alanine scan, flow cytometry, HEK293-T
T13 construct: alanine scan clone, transfected HEK293-T
T13 sequence (P20138 18-364 P150A limits assumed): as the sequence (P20138 18-364 Y116A limits assumed) above, with A99Y, P133A counted along it

human CD33 K130A = molecular target: T14, human CD33 K130A (human, UniProt P20138 18-364); test: alanine scan, flow cytometry, HEK293-T
T14 construct: alanine scan clone, transfected HEK293-T
T14 sequence (P20138 18-364 K130A limits assumed): as the sequence (P20138 18-364 Y116A limits assumed) above, with A99Y, K113A counted along it

human CD33 Y50I = human CD33 Y50I (human, UniProt P20138 18-364); test: flow cytometry, transfected cells
Sequence of human CD33 Y50I (P20138 18-364 Y50I limits assumed): as the sequence (P20138 18-364 Y116A limits assumed) above, with Y33I, A99Y counted along it

human CD33 P48W = human CD33 P48W (human, UniProt P20138 18-364); test: flow cytometry, transfected cells
Sequence of human CD33 P48W (P20138 18-364 P48W limits assumed): as the sequence (P20138 18-364 Y116A limits assumed) above, with P31W, A99Y counted along it

human CD33 Y50S = human CD33 Y50S (human, UniProt P20138 18-364); test: flow cytometry, transfected cells
Sequence of human CD33 Y50S (P20138 18-364 Y50S limits assumed): as the sequence (P20138 18-364 Y116A limits assumed) above, with Y33S, A99Y counted along it

human CD33 Y50L = human CD33 Y50L (human, UniProt P20138 18-364); test: flow cytometry, transfected cells
Sequence of human CD33 Y50L (P20138 18-364 Y50L limits assumed): as the sequence (P20138 18-364 Y116A limits assumed) above, with Y33L, A99Y counted along it

human CD33 Y50N = human CD33 Y50N (human, UniProt P20138 18-364); test: flow cytometry, transfected cells
Sequence of human CD33 Y50N (P20138 18-364 Y50N limits assumed): as the sequence (P20138 18-364 Y116A limits assumed) above, with Y33N, A99Y counted along it

human CD33 Y50G = human CD33 Y50G (human, UniProt P20138 18-364); test: flow cytometry, transfected cells
Sequence of human CD33 Y50G (P20138 18-364 Y50G limits assumed): as the sequence (P20138 18-364 Y116A limits assumed) above, with Y33G, A99Y counted along it

human CD33 P48H = human CD33 P48H (human, UniProt P20138 18-364); test: flow cytometry, transfected cells
Sequence of human CD33 P48H (P20138 18-364 P48H limits assumed): as the sequence (P20138 18-364 Y116A limits assumed) above, with P31H, A99Y counted along it

human CD33 Y49D = human CD33 Y49D (human, UniProt P20138 18-364); test: flow cytometry, transfected cells
Sequence of human CD33 Y49D (P20138 18-364 Y49D limits assumed): as the sequence (P20138 18-364 Y116A limits assumed) above, with Y32D, A99Y counted along it

human CD33 Y50H = human CD33 Y50H (human, UniProt P20138 18-364); test: flow cytometry, transfected cells
Sequence of human CD33 Y50H (P20138 18-364 Y50H limits assumed): as the sequence (P20138 18-364 Y116A limits assumed) above, with Y33H, A99Y counted along it

human CD33 Y49C = human CD33 Y49C (human, UniProt P20138 18-364); test: flow cytometry, transfected cells
Sequence of human CD33 Y49C (P20138 18-364 Y49C limits assumed): as the sequence (P20138 18-364 Y116A limits assumed) above, with Y32C, A99Y counted along it

[1] = molecular target: human CD33 extracellular region F21L (human, UniProt P20138 22-259); test: BLI Octet, IgG captured on AHC, CD33 analyte;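 also: CD33 variants and wild type run as analyte at 5, 50 and 500 nM, 700 s association then 1200 s dissociation, buffer-only reference subtracted, global 1:1 fit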
Sequence of human CD33 extracellular region F21L (P20138 other isoform, or with tags, fused parts or gaps F21L F21L): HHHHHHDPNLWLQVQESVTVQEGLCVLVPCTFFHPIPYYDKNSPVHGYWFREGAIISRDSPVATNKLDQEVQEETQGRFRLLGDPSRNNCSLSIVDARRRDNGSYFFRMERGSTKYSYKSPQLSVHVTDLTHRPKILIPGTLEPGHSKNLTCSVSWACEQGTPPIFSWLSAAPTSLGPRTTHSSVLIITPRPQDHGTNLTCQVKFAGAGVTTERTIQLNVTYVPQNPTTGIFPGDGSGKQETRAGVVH

Binder	Mean % WT Binding (human CD33 Y116A)	Mean % WT Binding (human CD33 D112A)	Mean % WT Binding (human CD33 G58A)	Mean % WT Binding (human CD33 W60A)	Mean % WT Binding (human CD33 E81A)	Mean % WT Binding (human CD33 R111A)	Mean % WT Binding (human CD33 F117A)	Mean % WT Binding (human CD33 A74S)	Mean % WT Binding (human CD33 T173A)	Mean % WT Binding (human CD33 E121A)	Mean % WT Binding (human CD33 L161A)	Mean % WT Binding (human CD33 G151A)	Mean % WT Binding (human CD33 L153A)	Mean % WT Binding (human CD33 T185A)	Mean % WT Binding (human CD33 L187A)	Mean % WT Binding (human CD33 S135A)	Mean % WT Binding (human CD33 I176A)	Mean % WT Binding (human CD33 T162A)	Mean % WT Binding (human CD33 H137A)	Mean % WT Binding (human CD33 N160A)	also measured
B1	5 % WT binding	51.6 % WT binding	73.9 % WT binding	2.1 % WT binding	88.1 % WT binding	102 % WT binding	90.3 % WT binding	94.9 % WT binding													
B2									98.9 % WT binding	90.8 % WT binding	100 % WT binding	91.1 % WT binding	94.3 % WT binding	117 % WT binding	119 % WT binding	110 % WT binding	102 % WT binding	87.2 % WT binding	117 % WT binding	106 % WT binding	Mean % WT Binding (human CD33 P150A): 106 % WT binding; Mean % WT Binding (human CD33 K130A): 119 % WT binding
B3																					binding result (human CD33 Y50I): no binding (tested: below 20%); binding result (human CD33 P48W): no binding (tested: below 20%); binding result (human CD33 Y50S): no binding (tested: below 20%); binding result (human CD33 Y50L): no binding (tested: below 20%); binding result (human CD33 Y50N): no binding (tested: below 20%); binding result (human CD33 Y50G): no binding (tested: below 20%); binding result (human CD33 P48H): no binding (tested: below 20%); binding result (human CD33 Y49D): no binding (tested: below 20%); binding result (human CD33 Y50H): no binding (tested: below 20%); binding result (human CD33 Y49C): no binding (tested: below 20%); % WT binding [1]: 109%
B4	16 % WT binding	61.2 % WT binding	112 % WT binding	35.9 % WT binding	140 % WT binding	118 % WT binding	113 % WT binding	99 % WT binding													
B5									101 % WT binding	105 % WT binding	130 % WT binding	99.6 % WT binding	101 % WT binding	94 % WT binding	144 % WT binding	108 % WT binding	97 % WT binding	92.4 % WT binding	120 % WT binding	110 % WT binding	Mean % WT Binding (human CD33 P150A): 132 % WT binding; Mean % WT Binding (human CD33 K130A): 271 % WT binding
B6																					binding result (human CD33 Y50I): no binding (tested: below 20%); binding result (human CD33 P48W): no binding (tested: below 20%); binding result (human CD33 Y50S): no binding (tested: below 20%); binding result (human CD33 Y50L): no binding (tested: below 20%); binding result (human CD33 Y50N): no binding (tested: below 20%); binding result (human CD33 Y50G): no binding (tested: below 20%); binding result (human CD33 P48H): no binding (tested: below 20%); binding result (human CD33 Y49D): no binding (tested: below 20%); binding result (human CD33 Y50H): no binding (tested: below 20%); binding result (human CD33 Y49C): no binding (tested: below 20%)
